Source: US8562982B2, “Use of platelet activating factor acetylhydrolase as a biomarker for anaphylaxis” (Allertech Laboratory Inc., priority 2007, dated 2013)

Experiment: Stability of PAF-AH in serum (storage temperatures, freeze-thaw cycles)
Format: physicochemical, human
Protocol: Sera may have been stored under differing conditions, subjecting PAF-AH to thermal stresses. In order to evaluate the effect of handling and storage conditions on PAF-AH activity, serum samples were subjected to a range of temperatures and freeze-thaw cycles and assayed for residual PAF-AH activity as detailed below.
The final concentration of the substrate was 160 μM. […] The reaction was stopped in an ice bath.
Serum samples from individuals with fatal peanut anaphylaxis and from various control groups may have been stored under differing conditions, subjecting PAF-AH to thermal stresses. In order to evaluate the effect of handling and storage conditions on PAF-AH activity, sera were stored at different temperatures. The stability of PAF-AH stored at 4° C. and 23° C. and subjected to repeated cycles of freeze-thawing was assessed. PAF-AH levels were measured at specified times following storage at 23° C. (2, 4, 8, 24 and 48 hours) and at 4° C. (5 and 10 days) and following 5 sequential cycles of freezing and thawing. To assess the stability of PAF-AH to long term storage, serum samples stored at −70° C. since 1998 were re-assayed for PAF-AH and compared to results of assay results prior to storage.

B1: PAF-AH: the enzyme that degrades PAF; endogenous serum enzyme measured as biomarker (protein, UniProt Q13093 22-441, looked up)
Platelet-activating factor …: FDWQYINPVAHMKSSAWVNKIQVLMAAASFGQTKIPRGNGPYSVGCTDLMFDHTNKGTFLRLYYPSQDNDRLDTLWIPNKEYFWGLSKFLGTHWLMGNILRLLFGSMTTPANWNSPLRPGEKYPLVVFSHGLGAFRTLYSAIGIDLASHGFIVAAVEHRDRSASATYYFKDQSAAEIGDKSWLYLRTLKQEEETHIRNEQVRQRAKECSQALSLILDIDHGKPVKNALDLKFDMEQLKDSIDREKIAVIGHSFGGATVIQTLSEDQRFRCGIALDAWMFPLGDEVYSRIPQPLFFINSEYFQYPANIIKMKKCYSPDKERKMITIRGSVHQNFADFTFATGKIIGHMLKLKGDIDSNVAIDLSNKASLAFLQKHLGLHKDFDQWDCLIEGDDENLIPGTNINTTNQHIMLQNSSGIEKYN
With B1 as the molecule, how does the “residual PAF-AH activity” value (6 fresh sera, 5 freeze-thaw cycles, relative to fresh sera) read?
Its value is 90-105%.

And the “mean PAF-AH activity” value (fresh sera in 1998 (n=25), before storage)?
The value was 27.04 ± 9.92 nmol/mL/min.

And the “mean PAF-AH activity” value (same sera after eight years at −70° C. (p=0.1047))?
The value was 22.98 ± 7.23 nmol/mL/min.

And the “retained initial PAF-AH activity” value (sera stored at 4° C. for 10 days)?
The value was 96-102%.

What about the “retained PAF-AH activity of fresh sera” value (sera stored at 23° C. for up to 48 hours) of the same molecule?
The value was 84-92%.
